Experimental data taken from PMC9335864.

Target: N-terminal Nanoluciferase-tagged p97-N domain (human)
Experiment: FRET or BRET; NanoBRET in p47-knockout U2OS cells: Nanoluciferase-p97-N donor, p47-UBX-HaloTag acceptor, co-transfected with antibody-fragment or p47-FLAG plasmids; compared with scFv-RNase and scFab-RNase controls

N-terminal Nanoluciferase-tagged p97-N domain (human), sequence (P55072 2-806): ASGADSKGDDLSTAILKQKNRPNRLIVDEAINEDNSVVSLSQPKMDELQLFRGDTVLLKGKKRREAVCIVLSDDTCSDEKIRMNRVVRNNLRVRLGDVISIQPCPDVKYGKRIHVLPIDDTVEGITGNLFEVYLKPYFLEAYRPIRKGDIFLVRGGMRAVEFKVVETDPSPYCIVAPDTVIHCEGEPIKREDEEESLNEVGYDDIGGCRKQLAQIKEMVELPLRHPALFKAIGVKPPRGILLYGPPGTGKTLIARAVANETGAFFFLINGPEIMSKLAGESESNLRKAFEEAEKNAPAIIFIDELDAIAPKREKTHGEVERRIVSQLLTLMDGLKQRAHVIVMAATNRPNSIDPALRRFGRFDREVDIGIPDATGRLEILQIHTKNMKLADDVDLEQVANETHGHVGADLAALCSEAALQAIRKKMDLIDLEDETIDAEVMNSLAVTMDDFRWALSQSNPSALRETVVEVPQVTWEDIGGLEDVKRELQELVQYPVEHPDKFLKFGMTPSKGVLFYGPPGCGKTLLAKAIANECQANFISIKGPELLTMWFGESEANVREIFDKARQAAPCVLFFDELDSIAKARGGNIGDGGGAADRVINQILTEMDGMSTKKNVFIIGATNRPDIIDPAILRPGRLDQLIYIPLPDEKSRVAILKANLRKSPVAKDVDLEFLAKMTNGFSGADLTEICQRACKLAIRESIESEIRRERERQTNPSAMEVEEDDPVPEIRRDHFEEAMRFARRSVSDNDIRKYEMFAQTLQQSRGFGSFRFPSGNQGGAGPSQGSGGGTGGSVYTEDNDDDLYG

reduction of the BRET ratio of the p97-N/p47-UBX pair: 15%
B1: p47-FLAG (natural protein)
chain: MAAERQEALREFVAVTGAEEDRARFFLESAGWDLQIALASFYEDGGDEDIVTISQATPSSVSRGTAPSDNRVTSFRDLIHDQDEDEEEEEGQRFYAGGSERSGQQIVGPPRKKSPNELVDDLFKGAKEHGAVAVERVTKSPGETSKPRPFAGGGYRLGAAPEEESAYVAGEKRQHSSQDVHVVLKLWKSGFSLDNGELRSYQDPSNAQFLESIRRGEVPAELRRLAHGGQVNLDMEDHRDEDFVKPKGAFKAFTGEGQKLGSTAPQVLSTSSPAQQAENEAKASSSILIDESEPTTNIQIRLADGGRLVQKFNHSHRISDIRLFIVDARPAMAATSFILMTTFPNKELADESQTLKEANLLNAVIVQRLT
